Patent US20230078173A1

Target: recombinant human PD-L1-mFc fusion protein (human) (UniProt Q9NZQ7)
Test: ELISA, human PD-L1-mFc immobilised (1 µg/mL), anti-human kappa-HRP detection

recombinant human PD-L1-mFc fusion protein (human), sequence (Q9NZQ7 19-238): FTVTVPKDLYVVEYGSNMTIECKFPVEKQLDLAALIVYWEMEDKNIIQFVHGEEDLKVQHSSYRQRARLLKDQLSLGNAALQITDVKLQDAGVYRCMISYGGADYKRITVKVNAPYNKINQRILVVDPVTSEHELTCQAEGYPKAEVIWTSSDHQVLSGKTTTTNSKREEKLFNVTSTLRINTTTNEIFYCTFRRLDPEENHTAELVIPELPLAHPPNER

Work on Avelumab/TGFβR (antibody) yielded an EC50 of 0.107 nM.
